Results taken from patent US20180155451A1 (published 2018).

Columns and labels:
[1] = target: T1, FcgRIIa H extracellular domain with C-terminal His tag (human, UniProt P12318 34-217); test: ratio of SPR (Biacore) KDs, FcγRIIb as reference; antibody captured on chip, FcγR as analyte
T1 construct: extracellular domain; also called FcγRIIa H; FcγRIIa type H; not shown: His tag attached to the C terminus
T1 sequence (looked up): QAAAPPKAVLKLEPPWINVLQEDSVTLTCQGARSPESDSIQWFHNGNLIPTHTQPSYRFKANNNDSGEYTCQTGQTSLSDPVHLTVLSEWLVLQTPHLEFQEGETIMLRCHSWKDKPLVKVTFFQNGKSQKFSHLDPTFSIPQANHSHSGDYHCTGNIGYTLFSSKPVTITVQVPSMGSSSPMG
Procedure: (§1) These antibodies were assessed for the binding activity to each FcγR according to the method described in Reference Example 2.
(§2) Analysis of interaction between objective antibody and the FcγR was carried out using Biacore T100 (GE Healthcare). HBS-EP+ (GE Healthcare) was used as the running buffer, and the measurement temperature was set to 25° C. Chips produced by immobilizing the antigen peptide by the amine coupling method to a Series S Sencor Chip CM5 (GE Healthcare), or alternatively, chips produced by allowing preliminarily biotinylated antigen peptides to interact with and immobilize onto a Series S Sensor Chip SA (certified) (GE Healthcare) were used. Antibodies of interest were captured onto an antigen peptide-immobilized chip, and allowed to interact to each FcγR diluted with running buffer. To regenerate and repeatedly use the chip, the antibodies captured on the chip were washed off by reacting 10 mM glycine-HCl, pH 1.5.
(§3) The FcγR-binding activity of each antibody was assessed primarily using as an indicator the FcγR-binding activity and dissociation constant for FcγR.

[2] = target: T2, FcgRIIa R extracellular domain with C-terminal His tag (human, UniProt P12318 34-217); test: as above
T2 construct: extracellular domain; also called FcγRIIa R; FcγRIIa type R; not shown: His tag attached to the C terminus
T2 sequence (looked up): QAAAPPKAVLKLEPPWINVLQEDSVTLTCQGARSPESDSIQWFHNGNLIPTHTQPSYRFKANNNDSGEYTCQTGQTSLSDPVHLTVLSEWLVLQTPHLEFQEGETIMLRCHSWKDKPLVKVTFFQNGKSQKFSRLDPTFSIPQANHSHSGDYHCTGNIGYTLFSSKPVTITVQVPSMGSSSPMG
Procedure: as §1, §2, §3

Binder	A/I ratio (KD for FcγRIIb / KD for FcγRIIa H) [1]	A/I ratio (KD for FcγRIIb / KD for FcγRIIa R) [2]
GpH7-Kn033/GpH7-Hl033/GpL16-k0 (antibody, human IgG1, kappa, Anti-glypican-3 IgG1 with knobs-into-holes only (knob Y349C/T366W; hole D356C/T366S/L368A/Y407V); also called Kn033/Hl033) heavy 1: not shown heavy 2: not shown light: DIVMTQSPLSLPVTPGEPASISCQASESLVHSNRNTYLHWYLQKPGQSPQLLIYKVSNRFSGVPDRFSGSGSGTDFTLKISRVEAEDVGVYYCSQNTHVPPTFGQGTKVEIERTVAAPSVFIFPPSDEQLKSGTASVVCLLNNFYPREAKVQWKVDNALQSGNSQESVTEQDSKDSTYSLSSTLTLSKADYEKHKVYACEVTHQGLSSPVTKSFNRGEC	6.2	4.9
GpH7-Kn032/GpH7-Hl032/GpL16-k0 (antibody, human IgG1, kappa, S239D/A330L/I332E in both H chains (called homodimerized); also called Kn032/Hl032) heavy 1: QVQLVQSGAEVKKPGASVTVSCKASGYTFTDYEMHWIRQPPGEGLEWIGAIDPKTGDTAYSESFQDRVTLTADKSTSTAYMELSSLTSEDTAVYYCTRFYSYTYWGQGTLVTVSSASTKGPSVFPLAPSSKSTSGGTAALGCLVKDYFPEPVTVSWNSGALTSGVHTFPAVLQSSGLYSLSSVVTVPSSSLGTQTYICNVNHKPSNTKVDKKVEPKSCDKTHTCPPCPAPELLGGPDVFLFPPKPKDTLMISRTPEVTCVVVDVSHEDPEVKFNWYVDGVEVHNAKTKPREEQYNSTYRVVSVLTVLHQDWLNGKEYKCKVSNKALPLPEEKTISKAKGQPREPQVCTLPPSRDELTKNQVSLWCLVKGFYPSDIAVEWESNGQPENNYKTTPPVLDSDGSFFLYSKLTVDKSRWQQGNVFSCSVMHEALHNHYTQKSLSLSP heavy 2: QVQLVQSGAEVKKPGASVTVSCKASGYTFTDYEMHWIRQPPGEGLEWIGAIDPKTGDTAYSESFQDRVTLTADKSTSTAYMELSSLTSEDTAVYYCTRFYSYTYWGQGTLVTVSSASTKGPSVFPLAPSSKSTSGGTAALGCLVKDYFPEPVTVSWNSGALTSGVHTFPAVLQSSGLYSLSSVVTVPSSSLGTQTYICNVNHKPSNTKVDKKVEPKSCDKTHTCPPCPAPELLGGPDVFLFPPKPKDTLMISRTPEVTCVVVDVSHEDPEVKFNWYVDGVEVHNAKTKPREEQYNSTYRVVSVLTVLHQDWLNGKEYKCKVSNKALPLPEEKTISKAKGQPREPQVYTLPPSRCELTKNQVSLSCAVKGFYPSDIAVEWESNGQPENNYKTTPPVLDSDGSFFLVSKLTVDKSRWQQGNVFSCSVMHEALHNHYTQKSLSLSP light: DIVMTQSPLSLPVTPGEPASISCQASESLVHSNRNTYLHWYLQKPGQSPQLLIYKVSNRFSGVPDRFSGSGSGTDFTLKISRVEAEDVGVYYCSQNTHVPPTFGQGTKVEIERTVAAPSVFIFPPSDEQLKSGTASVVCLLNNFYPREAKVQWKVDNALQSGNSQESVTEQDSKDSTYSLSSTLTLSKADYEKHKVYACEVTHQGLSSPVTKSFNRGEC	0.93	1.8
GpH7-Kn037/GpH7-Hl036/GpL16-k0 (antibody, human IgG1, kappa, G236A/S239D/I332E in both H chains (called homodimerized); also called Kn037/Hl036) heavy 1: QVQLVQSGAEVKKPGASVTVSCKASGYTFTDYEMHWIRQPPGEGLEWIGAIDPKTGDTAYSESFQDRVTLTADKSTSTAYMELSSLTSEDTAVYYCTRFYSYTYWGQGTLVTVSSASTKGPSVFPLAPSSKSTSGGTAALGCLVKDYFPEPVTVSWNSGALTSGVHTFPAVLQSSGLYSLSSVVTVPSSSLGTQTYICNVNHKPSNTKVDKKVEPKSCDKTHTCPPCPAPELLAGPDVFLFPPKPKDTLMISRTPEVTCVVVDVSHEDPEVKFNWYVDGVEVHNAKTKPREEQYNSTYRVVSVLTVLHQDWLNGKEYKCKVSNKALPAPEEKTISKAKGQPREPQVCTLPPSRDELTKNQVSLWCLVKGFYPSDIAVEWESNGQPENNYKTTPPVLDSDGSFFLYSKLTVDKSRWQQGNVFSCSVMHEALHNHYTQKSLSLSP heavy 2: QVQLVQSGAEVKKPGASVTVSCKASGYTFTDYEMHWIRQPPGEGLEWIGAIDPKTGDTAYSESFQDRVTLTADKSTSTAYMELSSLTSEDTAVYYCTRFYSYTYWGQGTLVTVSSASTKGPSVFPLAPSSKSTSGGTAALGCLVKDYFPEPVTVSWNSGALTSGVHTFPAVLQSSGLYSLSSVVTVPSSSLGTQTYICNVNHKPSNTKVDKKVEPKSCDKTHTCPPCPAPELLAGPDVFLFPPKPKDTLMISRTPEVTCVVVDVSHEDPEVKFNWYVDGVEVHNAKTKPREEQYNSTYRVVSVLTVLHQDWLNGKEYKCKVSNKALPAPEEKTISKAKGQPREPQVYTLPPSRCELTKNQVSLSCAVKGFYPSDIAVEWESNGQPENNYKTTPPVLDSDGSFFLVSKLTVDKSRWQQGNVFSCSVMHEALHNHYTQKSLSLSP light: DIVMTQSPLSLPVTPGEPASISCQASESLVHSNRNTYLHWYLQKPGQSPQLLIYKVSNRFSGVPDRFSGSGSGTDFTLKISRVEAEDVGVYYCSQNTHVPPTFGQGTKVEIERTVAAPSVFIFPPSDEQLKSGTASVVCLLNNFYPREAKVQWKVDNALQSGNSQESVTEQDSKDSTYSLSSTLTLSKADYEKHKVYACEVTHQGLSSPVTKSFNRGEC	8.6	13
GpH7-Kn045/GpH7-Hl055/GpL16-k0 (antibody, human IgG1, kappa, Knob chain L234Y/L235Y/G236A/H268D/S298A; hole chain G236A/S239D/Q295L/A330M/I332E; also called Kn045/Hl055) heavy 1: QVQLVQSGAEVKKPGASVTVSCKASGYTFTDYEMHWIRQPPGEGLEWIGAIDPKTGDTAYSESFQDRVTLTADKSTSTAYMELSSLTSEDTAVYYCTRFYSYTYWGQGTLVTVSSASTKGPSVFPLAPSSKSTSGGTAALGCLVKDYFPEPVTVSWNSGALTSGVHTFPAVLQSSGLYSLSSVVTVPSSSLGTQTYICNVNHKPSNTKVDKKVEPKSCDKTHTCPPCPAPEYYAGPSVFLFPPKPKDTLMISRTPEVTCVVVDVSDEDPEVKFNWYVDGVEVHNAKTKPREEQYNATYRVVSVLTVLHQDWLNGKEYKCKVSNKALPAPIEKTISKAKGQPREPQVCTLPPSRDELTKNQVSLWCLVKGFYPSDIAVEWESNGQPENNYKTTPPVLDSDGSFFLYSKLTVDKSRWQQGNVFSCSVMHEALHNHYTQKSLSLSP heavy 2: QVQLVQSGAEVKKPGASVTVSCKASGYTFTDYEMHWIRQPPGEGLEWIGAIDPKTGDTAYSESFQDRVTLTADKSTSTAYMELSSLTSEDTAVYYCTRFYSYTYWGQGTLVTVSSASTKGPSVFPLAPSSKSTSGGTAALGCLVKDYFPEPVTVSWNSGALTSGVHTFPAVLQSSGLYSLSSVVTVPSSSLGTQTYICNVNHKPSNTKVDKKVEPKSCDKTHTCPPCPAPELLAGPDVFLFPPKPKDTLMISRTPEVTCVVVDVSHEDPEVKFNWYVDGVEVHNAKTKPREELYNSTYRVVSVLTVLHQDWLNGKEYKCKVSNKALPMPEEKTISKAKGQPREPQVYTLPPSRCELTKNQVSLSCAVKGFYPSDIAVEWESNGQPENNYKTTPPVLDSDGSFFLVSKLTVDKSRWQQGNVFSCSVMHEALHNHYTQKSLSLSP light: DIVMTQSPLSLPVTPGEPASISCQASESLVHSNRNTYLHWYLQKPGQSPQLLIYKVSNRFSGVPDRFSGSGSGTDFTLKISRVEAEDVGVYYCSQNTHVPPTFGQGTKVEIERTVAAPSVFIFPPSDEQLKSGTASVVCLLNNFYPREAKVQWKVDNALQSGNSQESVTEQDSKDSTYSLSSTLTLSKADYEKHKVYACEVTHQGLSSPVTKSFNRGEC	8.3	18
GpH7-Kn045/GpH7-Hl048/GpL16-k0 (antibody, human IgG1, kappa, Knob chain L234Y/L235Y/G236A/H268D/S298A; hole chain G236A/S239D/A330K/I332E; also called Kn045/Hl048) heavy 1: QVQLVQSGAEVKKPGASVTVSCKASGYTFTDYEMHWIRQPPGEGLEWIGAIDPKTGDTAYSESFQDRVTLTADKSTSTAYMELSSLTSEDTAVYYCTRFYSYTYWGQGTLVTVSSASTKGPSVFPLAPSSKSTSGGTAALGCLVKDYFPEPVTVSWNSGALTSGVHTFPAVLQSSGLYSLSSVVTVPSSSLGTQTYICNVNHKPSNTKVDKKVEPKSCDKTHTCPPCPAPEYYAGPSVFLFPPKPKDTLMISRTPEVTCVVVDVSDEDPEVKFNWYVDGVEVHNAKTKPREEQYNATYRVVSVLTVLHQDWLNGKEYKCKVSNKALPAPIEKTISKAKGQPREPQVCTLPPSRDELTKNQVSLWCLVKGFYPSDIAVEWESNGQPENNYKTTPPVLDSDGSFFLYSKLTVDKSRWQQGNVFSCSVMHEALHNHYTQKSLSLSP heavy 2: QVQLVQSGAEVKKPGASVTVSCKASGYTFTDYEMHWIRQPPGEGLEWIGAIDPKTGDTAYSESFQDRVTLTADKSTSTAYMELSSLTSEDTAVYYCTRFYSYTYWGQGTLVTVSSASTKGPSVFPLAPSSKSTSGGTAALGCLVKDYFPEPVTVSWNSGALTSGVHTFPAVLQSSGLYSLSSVVTVPSSSLGTQTYICNVNHKPSNTKVDKKVEPKSCDKTHTCPPCPAPELLAGPDVFLFPPKPKDTLMISRTPEVTCVVVDVSHEDPEVKFNWYVDGVEVHNAKTKPREEQYNSTYRVVSVLTVLHQDWLNGKEYKCKVSNKALPKPEEKTISKAKGQPREPQVYTLPPSRCELTKNQVSLSCAVKGFYPSDIAVEWESNGQPENNYKTTPPVLDSDGSFFLVSKLTVDKSRWQQGNVFSCSVMHEALHNHYTQKSLSLSP light: DIVMTQSPLSLPVTPGEPASISCQASESLVHSNRNTYLHWYLQKPGQSPQLLIYKVSNRFSGVPDRFSGSGSGTDFTLKISRVEAEDVGVYYCSQNTHVPPTFGQGTKVEIERTVAAPSVFIFPPSDEQLKSGTASVVCLLNNFYPREAKVQWKVDNALQSGNSQESVTEQDSKDSTYSLSSTLTLSKADYEKHKVYACEVTHQGLSSPVTKSFNRGEC	9.5	22
